According to patent publication US20070036793A1, “Methods for use of an lkb1/strad7mo25 complex” (priority 2003, published 2007):

T1: GST-STRADα lacking the last 3 amino acids (Trp-Glu-Phe) (human, UniProt Q7RTN6 1-428)
T1 construct: not shown: glutathione S-transferase (GST) tag, N-terminal, pEBG-2T vector
T1 sequence: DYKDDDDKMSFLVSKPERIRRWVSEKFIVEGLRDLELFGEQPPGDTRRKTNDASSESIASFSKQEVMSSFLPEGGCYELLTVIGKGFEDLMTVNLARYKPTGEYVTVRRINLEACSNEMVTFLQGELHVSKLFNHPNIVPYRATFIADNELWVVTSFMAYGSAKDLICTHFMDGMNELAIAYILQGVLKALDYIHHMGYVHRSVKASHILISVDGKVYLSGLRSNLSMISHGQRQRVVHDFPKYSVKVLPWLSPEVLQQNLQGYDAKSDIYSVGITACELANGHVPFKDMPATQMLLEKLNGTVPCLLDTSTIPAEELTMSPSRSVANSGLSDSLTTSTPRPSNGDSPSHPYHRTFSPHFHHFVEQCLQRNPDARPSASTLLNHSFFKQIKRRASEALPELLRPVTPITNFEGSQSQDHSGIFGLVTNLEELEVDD

T2: Flag-tagged STRADα (human, UniProt Q7RTN6 1-431, limits assumed)
T2 construct: pCMV5 vector; also called Flag-STRADα; FLAG-STRADα
T2 sequence: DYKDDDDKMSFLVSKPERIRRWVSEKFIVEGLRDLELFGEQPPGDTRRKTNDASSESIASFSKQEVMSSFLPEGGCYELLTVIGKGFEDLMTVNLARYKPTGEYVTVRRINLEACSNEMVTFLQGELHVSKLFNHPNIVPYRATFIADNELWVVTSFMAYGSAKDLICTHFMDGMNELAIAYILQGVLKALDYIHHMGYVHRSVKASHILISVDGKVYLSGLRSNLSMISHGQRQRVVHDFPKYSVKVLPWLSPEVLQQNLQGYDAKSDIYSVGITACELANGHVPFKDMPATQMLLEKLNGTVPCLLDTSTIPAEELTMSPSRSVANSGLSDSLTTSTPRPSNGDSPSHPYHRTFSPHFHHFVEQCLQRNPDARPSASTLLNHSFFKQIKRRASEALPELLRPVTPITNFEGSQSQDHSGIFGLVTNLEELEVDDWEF

T3: Flag-tagged STRADβ (human, UniProt Q9C0K7 1-418)
T3 construct: pCMV5 vector; also called Flag-STRADβ; FLAG-STRADβ
T3 sequence: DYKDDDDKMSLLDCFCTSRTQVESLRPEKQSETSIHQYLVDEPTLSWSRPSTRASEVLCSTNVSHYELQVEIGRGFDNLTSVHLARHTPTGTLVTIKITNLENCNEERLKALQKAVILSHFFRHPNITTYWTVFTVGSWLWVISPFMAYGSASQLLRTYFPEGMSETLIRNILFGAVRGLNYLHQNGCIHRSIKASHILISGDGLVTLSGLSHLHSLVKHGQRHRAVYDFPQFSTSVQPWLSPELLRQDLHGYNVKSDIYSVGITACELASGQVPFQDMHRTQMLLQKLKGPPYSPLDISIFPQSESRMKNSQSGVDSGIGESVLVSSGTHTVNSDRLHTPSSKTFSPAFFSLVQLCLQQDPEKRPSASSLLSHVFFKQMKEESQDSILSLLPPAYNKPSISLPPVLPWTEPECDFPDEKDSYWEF

T4: N-terminal Flag epitope tagged wild type LKB1 (mouse, UniProt Q9WTK7 1-436)
T4 construct: not restated for the HeLa lines; also called Flag-LKB1; WT LKB1
T4 sequence: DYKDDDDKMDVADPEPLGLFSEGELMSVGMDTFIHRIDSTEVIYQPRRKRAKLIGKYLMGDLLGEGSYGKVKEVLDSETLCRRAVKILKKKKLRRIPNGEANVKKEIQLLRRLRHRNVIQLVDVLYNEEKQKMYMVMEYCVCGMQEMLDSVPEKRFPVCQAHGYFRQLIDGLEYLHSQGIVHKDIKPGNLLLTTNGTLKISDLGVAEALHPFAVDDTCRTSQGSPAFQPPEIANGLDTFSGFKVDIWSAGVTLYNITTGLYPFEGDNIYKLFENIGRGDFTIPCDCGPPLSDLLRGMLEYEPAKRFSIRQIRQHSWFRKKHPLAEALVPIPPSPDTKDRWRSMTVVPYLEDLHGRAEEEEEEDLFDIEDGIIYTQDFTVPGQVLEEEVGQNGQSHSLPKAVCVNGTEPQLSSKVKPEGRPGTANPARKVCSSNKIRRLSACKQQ

B1: N-terminal Myc-tagged MO25α (other, human, UniProt Q9Y376 1-341, looked up)
chain: MPFPFGKSHKSPADIVKNLKESMAVLEKQDISDKKAEKATEEVSKNLVAMKEILYGTNEKEPQTEAVAQLAQELYNSGLLSTLVADLQLIDFEGKKDVAQIFNNILRRQIGTRTPTVEYICTQQNILFMLLKGYESPEIALNCGIMLRECIRHEPLAKIILWSEQFYDFFRYVEMSTFDIASDAFATFKDLLTRHKLLSAEFLEQHYDRFFSEYEKLLHSENYVTKRQSLKLLGELLLDRHNFTIMTKYISKPENLKLMMNLLRDKSRNIQFEAFHVFKVFVANPNKTQPILDILLKNQAKLIEFLSKFQNDRTEDEQFNDEKTYLVKQIRDLKRPAQQEA
notes: also called Myc-MO25α; myc-MO25α; not shown: only the DNA primer is printed
B2: GST-STRADα lacking the C-terminal 88 residues (other, human)
chain: DYKDDDDKMSFLVSKPERIRRWVSEKFIVEGLRDLELFGEQPPGDTRRKTNDASSESIASFSKQEVMSSFLPEGGCYELLTVIGKGFEDLMTVNLARYKPTGEYVTVRRINLEACSNEMVTFLQGELHVSKLFNHPNIVPYRATFIADNELWVVTSFMAYGSAKDLICTHFMDGMNELAIAYILQGVLKALDYIHHMGYVHRSVKASHILISVDGKVYLSGLRSNLSMISHGQRQRVVHDFPKYSVKVLPWLSPEVLQQNLQGYDAKSDIYSVGITACELANGHVPFKDMPATQMLLEKLNGTVPCLLDTSTIPAEELTMSPSRSVANSGLSDSLTTSTPRPSNGDSPSHP
notes: not shown: glutathione S-transferase (GST) tag, N-terminal, pEBG-2T vector

What was measured:
[1] = target: B2; assay: GST pull-down from co-transfected 293 cells
Method: (§1) FIG. 7. Binding of LKB1 to STRADα creates novel binding site(s) for MO25α. […] Similar results were obtained in 3 separate experiments.
(§2) Expression of GST-fusion proteins in 293 cells and affinity purification. 10-cm diameter dishes of 293 cells were transiently transfected with 3 to 10 μg of the pEBG-2T constructs using a modified calcium phosphate method (Alessi et al., 1996). 36 h post-transfection, the cells were lysed and the clarified lysates were incubated for 1 h on a rotating platform with glutathione-Sepharose (25 μl/dish of lysate) previously equilibrated in lysis Buffer. The beads were washed 4 times with lysis Buffer containing 150 mM NaCl and twice with Buffer A. For immunoblotting analysis, the beads were then resuspended in SDS sample Buffer after this step to give a final volume of slurry of 75 μl, and the samples immunoblotted as described above. For protein kinase assays and gel electrophoresis, the beads were washed a further twice with Buffer A containing 0.27 M sucrose and the proteins were eluted from the resin by incubation with the same buffer containing 20 mM of glutathione. The beads were then removed by filtration through a 0.44-μm filter and the eluate divided into aliquots and stored at −80° C.

[2] = target: T1, GST-STRADα lacking the last 3 amino …; assay: GST pull-down from co-transfected 293 cells, anti-Myc blot
Method: 5 μg of the total cell lysates prior to affinity purification were also subjected to immunoblotting with anti-Myc antibody to ensure that Myc-MO25α was expressed at similar levels in each condition (lower panel). (B) 0.5 mg of the indicated cell lysates was incubated with 5 μg of an N-terminal biotinylated peptide encompassing either the C-terminal 12 residues STRADα conjugated to streptavidin-Sepharose ([…], termed STRADα-C12) or mutants of this peptide in which the indicated residues were individually mutated to Ala. Following isolation and washing of the beads, the samples were subjected to SDS-polyacrylamide gel electrophoresis and immunoblotted with an anti-MO25α antibody. (C) Binding of bacterially expressed MO25α to the indicated peptides was analysed by surface plasmon resonance BiaCore analysis as described in Materials and Methods. […] WEF-C12 corresponds to […], WEA-C12 corresponds to […], AEF-C12 corresponds to […], WAF-C12 corresponds to […], WEF-C6 corresponds to VDDWEF.
Expression of GST-fusion proteins in 293 cells and affinity purification. 10-cm diameter dishes of 293 cells were transiently transfected with 3 to 10 μg of the pEBG-2T constructs using a modified calcium phosphate method (Alessi et al., 1996). […]

Flag-tagged STRADα = target: T2, Flag-tagged STRADα; assay: heterotrimeric complex purified through GST-LKB1 from co-transfected 293 cells, colloidal blue gel and blots
Method: (§3) FIG. 4. MO25α is associated with LKB1 through STRAD (A) 293 cells were transfected with plasmids encoding for the expression of the indicated GST fusion proteins together with Myc-MO25α. 36 h post transfection, the GST tagged proteins were affinity purified from the cell lysates using glutathione-Sepharose as described in Materials and Methods. […] 5 μg of total cell lysates prior to affinity purification were also subjected to immunoblotting with anti-Myc antibody to ensure that Myc-MO25α was expressed at similar levels in each co-transfection (lower panel). (B) N-terminal GST tagged LKB1 was expressed in 293 cells in the presence or absence of Flag-STRADα and purified as above. The purified proteins were subjected to SDS-polyacrylamide gel electrophoresis and visualised by Colloidal blue staining (upper panel). The faint protein band indicated, corresponding to an endogenous protein of 40-kDa (marked *), was identified by tryptic peptide mass-spectral fingerprint as endogenously expressed MO25α (with 38% sequence coverage). The purified proteins were also immunoblotted with the indicated antibodies (lower panels). (C) As above except that GST-LKB1 was expressed in 293 cells together with the indicated isoforms of Flag-STRAD and Myc-MO25 and the proteins visualised by colloidal blue staining were also immunoblotted with the indicated antibodies. For all panels, similar results were obtained in at least 3 separate experiments.
(§4) Expression of GST-fusion proteins in 293 cells and affinity purification. 10-cm diameter dishes of 293 cells were transiently transfected with 3 to 10 μg of the pEBG-2T constructs using a modified calcium phosphate method (Alessi et al., 1996). 36 h post-transfection, the cells were lysed and the clarified lysates were incubated for 1 h on a rotating platform with glutathione-Sepharose (25 μl/dish of lysate) previously equilibrated in lysis Buffer.

Flag-tagged STRADβ = target: T3, Flag-tagged STRADβ; assay: as above
Method: as §3, §4

[3] = target: T4, N-terminal Flag epitope tagged wild …; assay: GST pull-down from co-transfected 293 cells
Method: as §1, §2

Row | Binder | binding result [1] | binding result [2] | binding result (Flag-tagged STRADα) | binding result (Flag-tagged STRADβ) | binding result [3]
1 | B1 | no binding | no binding | binds | binds | 
2 | B2 |  |  |  |  | no binding
